From the supplement of paper PMC10065799, “High-throughput profiling of sequence recognition by tyrosine kinases and SH2 domains using bacterial peptide display” (eLife, 2023)

How the values were obtained:
EPHB2 = EPHB2 (UniProt P29323); assay: phosphorylation enrichment, bacterial display (enrichment ratio); higher = better substrate or ligand; peptides without Tyr show the background
c-Abl (mouse) = assay: as above
c-Src = assay: as above
FGFR1 = FGFR1 (UniProt P11362); assay: as above
Fyn = Fyn (UniProt P06241); assay: as above
EPHB1 = EPHB1 (UniProt P54762); assay: as above
FGFR3 = FGFR3 (UniProt P22607); assay: as above
Fer (mouse) = assay: as above
Jak2 = Jak2 (UniProt O60674); assay: as above
MERTK = MERTK (UniProt Q12866); assay: as above
Hck = Hck (UniProt P08631); assay: as above
Fes = Fes (UniProt P07332); assay: as above
AncSZ = assay: as above
SHP2-C SH2 = assay: SH2 binding enrichment of the phosphorylated peptide, bacterial display (enrichment ratio); higher = better substrate or ligand; peptides without Tyr show the background
Grb2 SH2 = Grb2 SH2 (UniProt P62993); assay: as above
c-Src SH2 = assay: as above
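Throughout, for SH2 binding enrichment of the phosphorylated peptide, bacterial display: peptide library displayed on the E. coli surface as eCPX fusions, selected cells deep-sequenced, score is each peptide's frequency after selection divided by its frequency in the input.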
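Throughout, for phosphorylation enrichment, bacterial display: 11-residue human phosphosite peptides and single-mutation variants displayed on the E. coli surface, counted by deep sequencing, each peptide's frequency after selection divided by its frequency in the unselected input library; frequency after pTyr selection over input frequency; kinase dosed for 20-30% of maximal phosphorylation in three min.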

Chain of Fes (P07332 whole entry, looked up): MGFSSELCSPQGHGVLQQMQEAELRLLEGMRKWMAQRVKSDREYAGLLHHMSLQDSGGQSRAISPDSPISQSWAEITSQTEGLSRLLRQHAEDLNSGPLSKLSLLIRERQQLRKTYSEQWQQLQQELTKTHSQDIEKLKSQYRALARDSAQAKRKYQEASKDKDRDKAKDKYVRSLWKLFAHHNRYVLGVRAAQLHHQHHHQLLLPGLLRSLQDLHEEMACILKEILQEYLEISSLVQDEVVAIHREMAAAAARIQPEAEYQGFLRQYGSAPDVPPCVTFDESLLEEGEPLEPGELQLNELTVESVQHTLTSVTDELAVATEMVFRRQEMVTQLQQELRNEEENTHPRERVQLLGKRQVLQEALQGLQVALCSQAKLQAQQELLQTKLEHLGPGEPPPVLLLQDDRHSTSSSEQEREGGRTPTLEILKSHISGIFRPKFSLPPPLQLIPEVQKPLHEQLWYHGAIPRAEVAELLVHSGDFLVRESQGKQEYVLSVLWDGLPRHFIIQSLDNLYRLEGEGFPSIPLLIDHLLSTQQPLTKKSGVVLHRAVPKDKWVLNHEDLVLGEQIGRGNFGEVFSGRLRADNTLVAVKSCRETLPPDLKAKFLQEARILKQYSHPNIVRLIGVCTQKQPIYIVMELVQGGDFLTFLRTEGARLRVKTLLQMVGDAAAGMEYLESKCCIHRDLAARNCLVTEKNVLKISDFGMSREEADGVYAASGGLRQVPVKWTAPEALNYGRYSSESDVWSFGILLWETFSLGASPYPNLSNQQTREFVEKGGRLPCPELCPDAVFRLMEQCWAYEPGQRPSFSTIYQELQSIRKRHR
Chain of FGFR3 (P22607 whole entry, looked up): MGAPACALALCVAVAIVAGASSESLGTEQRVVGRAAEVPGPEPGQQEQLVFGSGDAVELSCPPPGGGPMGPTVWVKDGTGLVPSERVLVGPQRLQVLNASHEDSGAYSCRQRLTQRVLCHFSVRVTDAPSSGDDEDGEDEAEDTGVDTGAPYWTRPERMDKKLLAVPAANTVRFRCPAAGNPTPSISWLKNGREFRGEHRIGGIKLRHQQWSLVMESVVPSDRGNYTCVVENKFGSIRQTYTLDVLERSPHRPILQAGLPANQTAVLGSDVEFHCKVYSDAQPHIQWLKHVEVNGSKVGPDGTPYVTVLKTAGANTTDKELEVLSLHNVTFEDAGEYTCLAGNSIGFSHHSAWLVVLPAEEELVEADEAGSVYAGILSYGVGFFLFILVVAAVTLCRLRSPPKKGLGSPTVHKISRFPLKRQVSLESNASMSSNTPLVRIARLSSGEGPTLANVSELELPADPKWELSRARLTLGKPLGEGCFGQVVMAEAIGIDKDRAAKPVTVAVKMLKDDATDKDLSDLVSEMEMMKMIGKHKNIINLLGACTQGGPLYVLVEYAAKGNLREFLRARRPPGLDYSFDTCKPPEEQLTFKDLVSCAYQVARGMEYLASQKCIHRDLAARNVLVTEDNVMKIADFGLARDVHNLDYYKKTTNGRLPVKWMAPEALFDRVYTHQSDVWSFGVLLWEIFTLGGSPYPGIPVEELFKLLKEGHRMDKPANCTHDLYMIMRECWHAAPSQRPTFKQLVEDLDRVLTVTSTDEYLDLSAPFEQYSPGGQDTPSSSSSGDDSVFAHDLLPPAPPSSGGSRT
Chain of EPHB2 (P29323 whole entry, looked up): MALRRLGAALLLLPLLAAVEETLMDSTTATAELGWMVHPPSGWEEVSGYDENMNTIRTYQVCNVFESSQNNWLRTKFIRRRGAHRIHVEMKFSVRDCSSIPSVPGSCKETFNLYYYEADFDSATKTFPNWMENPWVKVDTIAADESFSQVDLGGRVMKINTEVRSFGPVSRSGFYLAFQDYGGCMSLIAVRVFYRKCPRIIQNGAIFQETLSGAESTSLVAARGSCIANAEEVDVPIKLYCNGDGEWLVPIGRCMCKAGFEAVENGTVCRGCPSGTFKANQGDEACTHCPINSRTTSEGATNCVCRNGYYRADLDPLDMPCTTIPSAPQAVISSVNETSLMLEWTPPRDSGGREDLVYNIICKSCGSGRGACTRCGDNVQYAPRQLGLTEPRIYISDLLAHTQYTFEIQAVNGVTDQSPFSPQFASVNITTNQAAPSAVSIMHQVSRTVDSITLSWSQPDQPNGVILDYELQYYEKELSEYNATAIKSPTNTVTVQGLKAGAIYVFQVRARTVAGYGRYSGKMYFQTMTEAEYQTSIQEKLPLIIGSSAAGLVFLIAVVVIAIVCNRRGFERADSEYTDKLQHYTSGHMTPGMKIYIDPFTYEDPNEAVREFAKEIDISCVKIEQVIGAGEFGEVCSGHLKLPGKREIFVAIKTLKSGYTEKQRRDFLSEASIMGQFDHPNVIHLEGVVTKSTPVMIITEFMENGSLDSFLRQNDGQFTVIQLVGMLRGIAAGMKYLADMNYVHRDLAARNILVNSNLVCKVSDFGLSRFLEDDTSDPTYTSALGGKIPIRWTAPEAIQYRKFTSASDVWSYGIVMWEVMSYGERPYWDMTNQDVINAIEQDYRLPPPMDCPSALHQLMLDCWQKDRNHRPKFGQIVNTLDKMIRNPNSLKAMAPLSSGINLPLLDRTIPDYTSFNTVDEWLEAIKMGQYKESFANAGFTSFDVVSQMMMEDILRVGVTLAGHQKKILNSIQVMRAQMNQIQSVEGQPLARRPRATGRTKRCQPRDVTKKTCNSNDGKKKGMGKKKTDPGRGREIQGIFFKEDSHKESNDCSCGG
Chain of Grb2 SH2 (P62993 whole entry, looked up): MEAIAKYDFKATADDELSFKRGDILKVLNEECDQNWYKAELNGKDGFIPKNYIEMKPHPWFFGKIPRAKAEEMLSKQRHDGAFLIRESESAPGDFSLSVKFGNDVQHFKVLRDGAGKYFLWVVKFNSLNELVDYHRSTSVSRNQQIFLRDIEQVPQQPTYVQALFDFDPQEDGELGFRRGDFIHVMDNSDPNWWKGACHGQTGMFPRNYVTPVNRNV
Chain of EPHB1 (P54762 whole entry, looked up): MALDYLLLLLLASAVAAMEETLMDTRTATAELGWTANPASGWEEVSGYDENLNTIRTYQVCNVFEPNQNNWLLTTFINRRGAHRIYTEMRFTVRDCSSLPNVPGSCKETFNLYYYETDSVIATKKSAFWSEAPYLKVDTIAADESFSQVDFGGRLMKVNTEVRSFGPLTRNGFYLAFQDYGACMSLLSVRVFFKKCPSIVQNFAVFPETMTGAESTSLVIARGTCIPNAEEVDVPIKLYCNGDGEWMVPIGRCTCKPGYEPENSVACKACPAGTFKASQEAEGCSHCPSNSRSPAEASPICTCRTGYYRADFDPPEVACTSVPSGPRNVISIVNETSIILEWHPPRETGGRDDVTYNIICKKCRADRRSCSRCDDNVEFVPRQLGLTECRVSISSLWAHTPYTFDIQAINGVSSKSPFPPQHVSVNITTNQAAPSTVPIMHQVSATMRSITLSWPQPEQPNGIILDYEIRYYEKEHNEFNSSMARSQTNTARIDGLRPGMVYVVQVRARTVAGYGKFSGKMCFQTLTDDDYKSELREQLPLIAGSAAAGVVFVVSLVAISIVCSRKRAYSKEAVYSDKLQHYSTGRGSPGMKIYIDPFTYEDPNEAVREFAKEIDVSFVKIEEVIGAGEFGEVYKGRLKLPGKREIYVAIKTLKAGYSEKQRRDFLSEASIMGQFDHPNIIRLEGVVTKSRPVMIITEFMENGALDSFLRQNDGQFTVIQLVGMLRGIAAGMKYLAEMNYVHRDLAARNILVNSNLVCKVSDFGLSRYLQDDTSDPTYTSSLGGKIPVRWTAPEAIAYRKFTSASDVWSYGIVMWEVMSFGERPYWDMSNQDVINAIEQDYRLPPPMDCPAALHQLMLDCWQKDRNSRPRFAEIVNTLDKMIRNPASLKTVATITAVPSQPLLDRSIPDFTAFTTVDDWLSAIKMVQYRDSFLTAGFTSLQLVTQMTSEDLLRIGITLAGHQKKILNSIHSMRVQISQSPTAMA
Chain of Jak2 (O60674 whole entry, looked up): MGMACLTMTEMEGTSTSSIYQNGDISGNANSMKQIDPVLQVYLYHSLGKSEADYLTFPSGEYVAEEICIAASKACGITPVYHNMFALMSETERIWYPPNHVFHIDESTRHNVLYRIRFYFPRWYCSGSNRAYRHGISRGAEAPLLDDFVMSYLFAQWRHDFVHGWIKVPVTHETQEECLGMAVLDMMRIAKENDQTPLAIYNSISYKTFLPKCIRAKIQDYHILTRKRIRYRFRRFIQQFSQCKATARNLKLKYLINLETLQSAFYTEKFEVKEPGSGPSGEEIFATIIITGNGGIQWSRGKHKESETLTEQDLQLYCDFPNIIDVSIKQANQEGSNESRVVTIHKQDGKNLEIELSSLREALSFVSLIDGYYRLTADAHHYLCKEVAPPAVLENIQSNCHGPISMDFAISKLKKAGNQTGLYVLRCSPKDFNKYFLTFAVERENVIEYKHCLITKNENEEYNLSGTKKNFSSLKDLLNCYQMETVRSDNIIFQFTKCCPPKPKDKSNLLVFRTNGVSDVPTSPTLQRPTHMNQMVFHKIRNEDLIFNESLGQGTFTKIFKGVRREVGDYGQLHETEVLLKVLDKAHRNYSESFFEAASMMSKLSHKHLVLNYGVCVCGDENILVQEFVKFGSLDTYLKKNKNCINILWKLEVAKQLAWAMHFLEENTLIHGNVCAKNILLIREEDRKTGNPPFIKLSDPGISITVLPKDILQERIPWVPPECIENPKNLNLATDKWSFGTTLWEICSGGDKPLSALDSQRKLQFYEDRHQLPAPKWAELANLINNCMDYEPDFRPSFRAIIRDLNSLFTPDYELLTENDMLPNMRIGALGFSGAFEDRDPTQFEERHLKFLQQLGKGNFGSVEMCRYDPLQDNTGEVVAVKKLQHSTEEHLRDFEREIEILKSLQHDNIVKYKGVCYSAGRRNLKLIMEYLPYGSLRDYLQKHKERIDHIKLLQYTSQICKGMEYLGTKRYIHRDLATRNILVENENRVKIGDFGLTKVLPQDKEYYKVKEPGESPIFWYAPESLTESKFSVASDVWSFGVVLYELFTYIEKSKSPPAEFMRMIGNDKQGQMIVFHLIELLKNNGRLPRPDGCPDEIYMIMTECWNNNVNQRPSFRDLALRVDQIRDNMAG

| Sequence | phosphorylation enrichment (EPHB2) | phosphorylation enrichment (c-Abl (mouse)) | phosphorylation enrichment (c-Src) | phosphorylation enrichment (FGFR1) | phosphorylation enrichment (Fyn) | phosphorylation enrichment (EPHB1) | phosphorylation enrichment (FGFR3) | phosphorylation enrichment (Fer (mouse)) | phosphorylation enrichment (Jak2) | phosphorylation enrichment (MERTK) | phosphorylation enrichment (Hck) | phosphorylation enrichment (Fes) | phosphorylation enrichment (AncSZ) | SH2 binding enrichment (SHP2-C SH2) | SH2 binding enrichment (Grb2 SH2) | SH2 binding enrichment (c-Src SH2) |
| --- | --- | --- | --- | --- | --- | --- | --- | --- | --- | --- | --- | --- | --- | --- | --- | --- |
| DDPRTYQKFGF [OAS1_Y362_R361T_YF] | 0.469 | 0.607 | 0.693 | 0.473 | 0.717 | 0.519 | 0.544 | 0.423 | 0.773 | 0.439 | 0.526 | 0.928 | 0.825 | 0.531 | 0.78 | 0.523 |
| DGQSVYKLTDF [TBK1_Y153] | 0.37 | 0.444 | 3.06 | 0.434 | 2.52 | 0.426 | 0.474 | 0.775 | 0.765 | 0.471 | 0.751 | 0.775 | 0.725 | 0.683 | 0.678 | 0.513 |
| DGTIVCTGLET [USH2A_Y4487_Y4487C] | 0.558 | 0.837 | 0.499 | 0.509 | 0.454 | 0.533 | 0.636 | 0.582 | 1.06 | 0.47 | 0.438 | 1.12 | 0.955 | 0.632 | 0.936 | 0.489 |
| DGYTDYAEFAK [MCFD2_Y138_I136T] | 0.706 | 0.734 | 0.942 | 0.754 | 0.96 | 0.829 | 0.699 | 0.4 | 0.765 | 0.463 | 0.74 | 0.844 | 1.03 | 0.592 | 0.651 | 1.22 |
| DKPENYRRLDI [VHL_Y175_V170D] | 0.412 | 0.39 | 0.418 | 0.558 | 0.46 | 0.388 | 0.467 | 0.452 | 0.551 | 0.402 | 0.442 | 0.657 | 0.647 | 0.637 | 0.68 | 0.472 |
| DLFRLYICVKE [ARID1B_Y1091_V1092I] | 0.715 | 0.997 | 0.499 | 0.471 | 0.456 | 0.741 | 1 | 0.591 | 1.45 | 0.391 | 0.572 | 1.61 | 1.19 | 0.521 | 0.744 | 0.384 |
| DLFRLYVCVKE [ARID1B_Y1091] | 0.67 | 0.875 | 0.431 | 0.389 | 0.396 | 0.697 | 0.88 | 0.548 | 1.35 | 0.364 | 0.475 | 1.52 | 1.17 | 0.51 | 0.59 | 0.35 |
| DLGIQYKVLKP [CTNNA1_Y177_A179V] | 0.624 | 0.759 | 0.521 | 0.481 | 0.46 | 0.462 | 0.692 | 0.417 | 1.12 | 0.413 | 0.548 | 1.28 | 1.1 | 0.691 | 0.793 | 0.411 |
| DLHGIYQKLVI | 3.01 | 3.83 | 5.84 | 1.65 | 8.38 | 4.32 | 1.31 | 11.4 | 0.82 | 5.38 | 7.64 | 1.04 | 0.886 | 0.822 | 0.952 | 0.597 |
| DLRGIYQKLVI | 1.32 | 1.76 | 5.56 | 0.825 | 6.38 | 1.81 | 0.854 | 7.47 | 0.869 | 4.99 | 6.68 | 1.4 | 0.826 | 1.09 | 1.23 | 0.721 |
| DMLYQYLKQIE [RPAP3_Y569] | 1.96 | 0.602 | 1.43 | 3.07 | 1.19 | 3.36 | 2.4 | 6.39 | 0.83 | 5.97 | 5.42 | 0.887 | 1.23 | 0.635 | 1.15 | 0.537 |
| DNACQYMLTDR [MYH7_Y164_Y162C] | 0.612 | 0.766 | 1.24 | 0.614 | 0.571 | 0.6 | 0.691 | 0.523 | 0.959 | 0.532 | 0.567 | 1 | 1.02 | 0.866 | 0.859 | 0.814 |
| DPHKIYEFVNS [IRF3_Y107] | 19.2 | 4.23 | 8.03 | 1.77 | 9.53 | 18.2 | 1.51 | 18.1 | 0.729 | 10.3 | 10.3 | 7.43 | 0.984 | 0.766 | 0.902 | 0.609 |
| DQIDTYELSGA [DNM1_Y354_G359A] | 0.554 | 0.681 | 0.793 | 0.475 | 0.964 | 0.545 | 0.809 | 0.637 | 1.03 | 0.475 | 0.741 | 1.16 | 1.21 | 0.727 | 0.824 | 0.493 |
| DRLASYPEKVR [KRT13_Y118_L119P] | 0.413 | 0.41 | 0.331 | 0.403 | 0.35 | 0.323 | 0.413 | 0.329 | 0.403 | 0.34 | 0.329 | 0.57 | 0.395 | 0.636 | 0.845 | 0.511 |
| DRLTVYIDRVR [LMNA_Y45_A43T] | 0.614 | 0.749 | 0.324 | 0.426 | 0.409 | 0.553 | 0.779 | 0.433 | 1.15 | 0.312 | 0.458 | 1.26 | 1.34 | 0.919 | 0.953 | 0.636 |
| DTLASYLDKVR [KRT12_Y139_R135T] | 0.44 | 0.495 | 0.364 | 0.352 | 0.378 | 0.403 | 0.415 | 0.304 | 0.42 | 0.411 | 0.408 | 0.76 | 0.552 | 0.73 | 0.98 | 0.687 |

| Sequence | phosphorylation enrichment (EPHB2) | phosphorylation enrichment (c-Abl (mouse)) | phosphorylation enrichment (c-Src) | phosphorylation enrichment (FGFR1) | phosphorylation enrichment (Fyn) | phosphorylation enrichment (EPHB1) | phosphorylation enrichment (FGFR3) | phosphorylation enrichment (Fer (mouse)) | phosphorylation enrichment (Jak2) | phosphorylation enrichment (MERTK) | phosphorylation enrichment (Hck) | phosphorylation enrichment (Fes) | phosphorylation enrichment (AncSZ) | SH2 binding enrichment (SHP2-C SH2) | SH2 binding enrichment (Grb2 SH2) | SH2 binding enrichment (c-Src SH2) |
| --- | --- | --- | --- | --- | --- | --- | --- | --- | --- | --- | --- | --- | --- | --- | --- | --- |
| DTNIAYWLHPR [POMT1_Y581] | 0.44 | 0.473 | 0.717 | 1.84 | 0.64 | 0.433 | 1.23 | 0.373 | 0.813 | 0.803 | 0.633 | 0.763 | 0.762 | 1.08 | 1.03 | 0.561 |
| DVAKEYGHLLP [HRC_Y99_S96A] | 0.512 | 0.555 | 0.52 | 0.436 | 0.422 | 0.517 | 0.522 | 0.403 | 0.781 | 0.402 | 0.547 | 0.822 | 0.723 | 0.604 | 0.984 | 0.429 |
| DVFRQYASLTG [GANAB_Y379] | 0.44 | 0.573 | 0.402 | 0.395 | 0.379 | 0.422 | 0.428 | 0.417 | 0.589 | 0.406 | 0.448 | 0.709 | 0.568 | 6.85 | 0.893 | 2.5 |
| EAESWYQTKFE [KRT75_Y342_YF] | 0.568 | 0.684 | 0.583 | 0.49 | 0.662 | 0.721 | 0.808 | 0.624 | 0.906 | 0.436 | 0.735 | 1.18 | 1.06 | 0.434 | 0.794 | 0.699 |
| EARRVYRDIIH [ALDH5A1_Y175_G176R] | 0.386 | 0.528 | 0.41 | 0.357 | 0.352 | 0.318 | 0.415 | 0.305 | 0.475 | 0.403 | 0.325 | 0.547 | 0.549 | 0.75 | 0.928 | 0.513 |
| EASGIYVKSVI [PATJ_Y396_I400V] | 0.465 | 0.716 | 0.462 | 0.47 | 0.433 | 0.543 | 0.741 | 0.481 | 0.97 | 0.366 | 0.501 | 1.1 | 0.958 | 0.55 | 0.783 | 0.481 |
| ECKLLYSQKEG [PTPN11_Y263_R265Q] | 0.759 | 0.724 | 0.541 | 0.532 | 0.489 | 0.643 | 0.705 | 0.607 | 0.986 | 0.494 | 0.682 | 1.08 | 0.865 | 0.667 | 0.786 | 0.554 |
| EEGESYVCSSD [DCX_Y125] | 0.792 | 0.924 | 0.603 | 0.676 | 0.56 | 0.814 | 0.945 | 0.799 | 1.21 | 0.58 | 0.694 | 1.41 | 1.31 | 0.839 | 1.08 | 0.793 |
| EEKKKYFDAKI [CASP5_Y103_T106A_YF] | 0.43 | 0.58 | 0.479 | 0.488 | 0.4 | 0.385 | 0.464 | 0.401 | 0.684 | 0.501 | 0.442 | 0.818 | 0.798 | 0.672 | 1.01 | 0.446 |
| EERNPYYSSAR [MCCC2_Y520_G517R] | 0.5 | 0.591 | 1.56 | 0.487 | 0.654 | 0.472 | 0.552 | 0.505 | 0.923 | 0.468 | 0.828 | 0.749 | 0.942 | 0.875 | 0.963 | 2.83 |
| EESSHYSTEKE [ADAR_Y587] | 0.493 | 0.604 | 0.427 | 0.597 | 0.633 | 0.621 | 0.578 | 0.531 | 0.658 | 0.509 | 0.589 | 1.47 | 1.14 | 0.646 | 0.955 | 0.549 |
| EFISESCGEII [EZH2_Y641_Y641S] | 0.752 | 0.783 | 0.568 | 0.567 | 0.484 | 0.544 | 0.592 | 0.484 | 1.04 | 0.419 | 0.476 | 1.19 | 1.17 | 0.716 | 1 | 0.532 |
| EFNLMYDGTKE [IRF6_Y97] | 0.462 | 0.705 | 0.597 | 0.498 | 0.536 | 0.447 | 0.603 | 0.479 | 1.03 | 0.446 | 0.595 | 1.14 | 0.993 | 1.21 | 0.883 | 0.489 |
| EFTAGYNVKFD [GPX4_Y123_A120T] | 0.474 | 0.635 | 0.44 | 0.41 | 0.465 | 0.422 | 0.547 | 0.495 | 0.9 | 0.445 | 0.435 | 0.891 | 0.762 | 0.605 | 0.881 | 0.468 |
| EICTQYEAMAS [GFAP_Y242_R239C] | 0.614 | 0.71 | 0.601 | 0.517 | 0.576 | 0.65 | 0.683 | 0.829 | 0.777 | 0.55 | 0.708 | 1.15 | 1.23 | 0.804 | 0.989 | 2.84 |
| EIIPFYGMSTF [FNDC3B_Y175_YF] | 0.667 | 0.97 | 0.782 | 0.461 | 0.687 | 0.532 | 0.524 | 0.897 | 0.879 | 0.901 | 0.844 | 0.911 | 0.955 | 0.575 | 0.731 | 3.09 |
